Measured values published in patent publication US20020034767.

Tested on: G protein βγ subunits

β-adrenergic receptor kinase was tested, and the “rhodopsin phosphorylation in the presence or absence of 100 nM G protein βγ subunits” value was “βARK is significantly activated in the presence of G protein βγ subunits”.
